{"source": "patent US20190002841A1", "key": {"[1]": {"molecular_target": "AAVrh64R1 capsid (vectors AAV2/rh.64R1.CMV.PI.EGFP.WPRE.bGH and rh.64R1 with CB7.CI.ffluciferase.RBG) (Adeno-associated virus rh.64R1)", "experiment": "AVB Sepharose HiTrap column, qPCR of fractions; mix rh.64R1+rh.10"}, "[2]": {"molecular_target": "AAV3B capsid (vector AAV2/3B.CB7.CI.ffluciferase.RBG) (Adeno-associated virus 3B)", "experiment": "AVB Sepharose HiTrap column, AAV3B against AAV3B-NKDKLN"}, "[3]": {"molecular_target": "AAV3B-NKDKLN capsid (AAV3B with SPAKFA replaced by NKDKLN of AAV9) (Adeno-associated virus 3B)", "experiment": "AVB Sepharose HiTrap column, AAV3B against AAV3B-NKDKLN"}, "[4]": {"molecular_target": "AAV3B capsid (vector AAV2/3B.CB7.CI.ffluciferase.RBG) (Adeno-associated virus 3B)", "experiment": "AVB Sepharose HiTrap column, unbound share in flow-through"}, "[5]": {"molecular_target": "AAV3B-NKDKLN capsid (AAV3B with SPAKFA replaced by NKDKLN of AAV9) (Adeno-associated virus 3B)", "experiment": "AVB Sepharose HiTrap column, unbound share in flow-through"}, "[6]": {"molecular_target": "AAVrh10 capsid (vector AAV2/rh.10.CMV.PI.Cre.RBG) (Adeno-associated virus rh.10)", "experiment": "AVB Sepharose HiTrap column, qPCR of fractions; average of two runs"}, "[7]": {"molecular_target": "AAV3B capsid (vector AAV2/3B.CB7.CI.ffluciferase.RBG) (Adeno-associated virus 3B)", "experiment": "AVB Sepharose HiTrap column, share washed off in wash 2 (1 M NaCl)"}, "[8]": {"molecular_target": "AAV3B-NKDKLN capsid (AAV3B with SPAKFA replaced by NKDKLN of AAV9) (Adeno-associated virus 3B)", "experiment": "AVB Sepharose HiTrap column, share washed off in wash 2 (1 M NaCl)"}, "[9]": {"molecular_target": "AAVhu37 capsid (vector AAV2/hu.37.TBG.EGFP.bGH) (Adeno-associated virus hu.37)", "experiment": "AVB Sepharose HiTrap column, qPCR of fractions; mix AAV8+hu.37+rh.10"}, "[10]": {"molecular_target": "AAV8 capsid (vectors AAV2/8.CMV.ffluciferase.SV40 and AAV8 with CB7.CI.ffluciferase.RBG) (Adeno-associated virus 8)", "experiment": "AVB Sepharose HiTrap column, qPCR of fractions; mix AAV8+hu.37+rh.10"}, "[11]": {"molecular_target": "AAV3B capsid (vector AAV2/3B.CB7.CI.ffluciferase.RBG) (Adeno-associated virus 3B)", "experiment": "AVB Sepharose HiTrap column, share washed off in wash 1"}, "[12]": {"molecular_target": "AAV3B-NKDKLN capsid (AAV3B with SPAKFA replaced by NKDKLN of AAV9) (Adeno-associated virus 3B)", "experiment": "AVB Sepharose HiTrap column, share washed off in wash 1"}, "[13]": {"molecular_target": "AAV9 capsid (vector with CB7.CI.ffluciferase.RBG) (Adeno-associated virus 9)", "experiment": "AVB Sepharose HiTrap column, clarified supernatant, wild type against SPAKFA mutant"}, "[14]": {"molecular_target": "AAV8 capsid (vectors AAV2/8.CMV.ffluciferase.SV40 and AAV8 with CB7.CI.ffluciferase.RBG) (Adeno-associated virus 8)", "experiment": "AVB Sepharose HiTrap column, clarified supernatant, wild type against SPAKFA mutant"}, "[15]": {"molecular_target": "AAV9-SPAKFA capsid (AAV9 with NKDKLN replaced by SPAKFA) (Adeno-associated virus 9)", "experiment": "AVB Sepharose HiTrap column, clarified supernatant, wild type against SPAKFA mutant"}, "[16]": {"molecular_target": "AAVrh64R1 capsid (vectors AAV2/rh.64R1.CMV.PI.EGFP.WPRE.bGH and rh.64R1 with CB7.CI.ffluciferase.RBG) (Adeno-associated virus rh.64R1)", "experiment": "AVB Sepharose HiTrap column, clarified supernatant, wild type against SPAKFA mutant"}, "[17]": {"molecular_target": "rh.64R1-SPAKFA capsid (rh.64R1 with NQAKLN replaced by SPAKFA) (Adeno-associated virus rh.64R1)", "experiment": "AVB Sepharose HiTrap column, clarified supernatant, wild type against SPAKFA mutant"}, "[18]": {"molecular_target": "AAV8-SPAKFA capsid (AAV8 with NQSKLN replaced by SPAKFA) (Adeno-associated virus 8)", "experiment": "AVB Sepharose HiTrap column, clarified supernatant, wild type against SPAKFA mutant"}, "[19]": {"molecular_target": "AAV3B capsid (vector AAV2/3B.CB7.CI.ffluciferase.RBG) (Adeno-associated virus 3B)", "experiment": "AVB Sepharose HiTrap column, qPCR of fractions; clarified AAV3B product"}}, "data": [{"substance": "AVB Sepharose High Performance affinity resin ligand (14 kD fragment from a single chain llama antibody expressed in yeast) (VHH)", "values": [{"measurement": "% of loaded vector genome in the elution fraction", "setting": "[1]", "value": 22, "unit": "%"}, {"measurement": "elution fraction yield (%)", "setting": "[2]", "value": 98, "unit": "%"}, {"measurement": "elution fraction yield (%)", "setting": "[3]", "value": 87, "unit": "%"}, {"measurement": "% of vector in the flow-through (FT) fraction", "setting": "[4]", "value": 1.3, "unit": "%"}, {"measurement": "% of vector in the flow-through (FT) fraction", "setting": "[5]", "value": 8.2, "unit": "%"}, {"measurement": "% of loaded vector genome in the elution fraction", "setting": "[6]", "value": 84, "unit": "%"}, {"measurement": "% of vector in the wash 2 (W2) fraction", "setting": "[7]", "value": 0.3, "unit": "%"}, {"measurement": "% of vector in the wash 2 (W2) fraction", "setting": "[8]", "value": 4.6, "unit": "%"}, {"measurement": "% of loaded vector genome in the elution fraction", "setting": "[9]", "value": 82, "unit": "%"}, {"measurement": "% of loaded vector genome in the elution fraction", "setting": "[10]", "value": 20, "unit": "%"}, {"measurement": "% of vector in the wash 1 (W1) fraction", "setting": "[11]", "value": 0, "unit": "%"}, {"measurement": "% of vector in the wash 1 (W1) fraction", "setting": "[12]", "value": 0.1, "unit": "%"}, {"measurement": "% recovery of loaded vector in the elution fraction (of total fractions)", "setting": "[13]", "value": 0.6, "unit": "%"}, {"measurement": "% recovery of loaded vector in the elution fraction (of total fractions)", "setting": "[14]", "value": 30, "unit": "%"}, {"measurement": "% recovery of loaded vector in the elution fraction (of total fractions)", "setting": "[15]", "value": 51, "unit": "%"}, {"measurement": "% recovery of loaded vector in the elution fraction (of total fractions)", "setting": "[16]", "value": 18, "unit": "%"}, {"measurement": "% recovery of loaded vector in the elution fraction (of total fractions)", "setting": "[17]", "value": 91, "unit": "%"}, {"measurement": "% recovery of loaded vector in the elution fraction (of total fractions)", "setting": "[18]", "value": 93, "unit": "%"}, {"measurement": "% of vector genomes recovered in the elution fraction", "setting": "[19]", "value": 98, "unit": "%"}]}]}
